Results taken from patent publication US20200317768A1 (published 2020).
Positions count from the first letter of the chain named.

B1: M103205H795-MY172 / M103202L889-SK1 (antibody, human IgG1, kappa)
heavy: QVTLKESGPVLVKPTETLTLTCTVSGIDLSHDDISWVRQAPGKGLEWVGIISYAGSTYYASWAKGRLTISKDTSKNQVVLTMTNMDPVDTATYYCARGVPAYSHGGDLWGQGTLVTVSSASTKGPSVFPLAPSSKSTSGGTAALGCLVKDYFPEPVTVSWNSGALTSGVHTFPAVLQSSGLYSLSSVVTVPSSSLGTQTYICNVNHKPSNTKVDKKVEPKSCDKTHTCPPCPAPELLNGPSVFLFPPKPKDTLMISRTPEVTCVVVDVSEEDPEVKFNWYVDGVEVHNAKTKPREEQYNSTYRVVSVLTVLHQDWLNGKEYKCKVSNKALPAPIEKTISKAKGQPREPQVYTLPPSREEMTKNQVSLTCLVKGFYPSDIAVEWESNGQPENNYKTTPGVLDSDGSFFLYSKLTVDKSRWQQGNVFSCSVMHEALHNHYTQKSLSLSP
light: DIVMTQSPATLSLSPGERATLSCTSSQSVYHANWLSWFQQKPGQPPKLLIYWASTLAYGVPSRFSGSGSGTDFTLTISSLQPEDAATYYCAGGYGGGRYAFGQGTKVEIKRTVAAPSVFIFPPSDEQLKSGTASVVCLLNNFYPREAKVQWKVDNALQSGNSQESVTEQDSKDSTYSLSSTLTLSKADYEKHKVYACEVTHQGLSSPVTKSFNRGEC
notes: Position 396 variant derived from MY052, expressed with M103202L889-SK1 as light chain
B2: M103205H795-MY177 / M103202L889-SK1 (antibody, human IgG1, kappa)
heavy: B1 heavy with G398N
light: B1 light
notes: as for B1
B3: M103205H795-MY181 / M103202L889-SK1 (antibody, human IgG1, kappa)
heavy: B1 heavy with G398T
light: B1 light
notes: as for B1
B4: M103205H795-MY182 / M103202L889-SK1 (antibody, human IgG1, kappa)
heavy: B1 heavy with G398V
light: B1 light
notes: as for B1
B5: M103205H795-MY178 / M103202L889-SK1 (antibody, human IgG1, kappa)
heavy: B1 heavy with G398Q
light: B1 light
notes: as for B1
B6: M103205H795-MY176 / M103202L889-SK1 (antibody, human IgG1, kappa)
heavy: B1 heavy with G398L
light: B1 light
notes: as for B1
B7: M103205H795-MY175 / M103202L889-SK1 (antibody, human IgG1, kappa)
heavy: B1 heavy with G398K
light: B1 light
notes: as for B1
B8: M103205H795-MY180 / M103202L889-SK1 (antibody, human IgG1, kappa)
heavy: B1 heavy with G398S
light: B1 light
notes: as for B1
B9: M103205H795-MY179 / M103202L889-SK1 (antibody, human IgG1, kappa)
heavy: B1 heavy with G398R
light: B1 light
notes: as for B1
B10: M103205H795-MY174 / M103202L889-SK1 (antibody, human IgG1, kappa)
heavy: B1 heavy with G398I
light: B1 light
notes: as for B1
B11: M103205H795-MY173 / M103202L889-SK1 (antibody, human IgG1, kappa)
heavy: B1 heavy with G398H
light: B1 light
notes: as for B1
B12: M103205H795-MY183 / M103202L889-SK1 (antibody, human IgG1, kappa)
heavy: B1 heavy with G398W
light: B1 light
notes: as for B1

biological target: T1, human FcγRIIb extracellular domain with C-terminal His-tag (human, UniProt P31994 43-217); assay: SPR (Biacore), antibody captured on chip, FcgR extracellular domain as analyte, 25 C
T1 construct: Expressed in FreeStyle 293 cells and purified; also called humanFcgRIIb; not shown: C-terminal His-tag
T1 sequence: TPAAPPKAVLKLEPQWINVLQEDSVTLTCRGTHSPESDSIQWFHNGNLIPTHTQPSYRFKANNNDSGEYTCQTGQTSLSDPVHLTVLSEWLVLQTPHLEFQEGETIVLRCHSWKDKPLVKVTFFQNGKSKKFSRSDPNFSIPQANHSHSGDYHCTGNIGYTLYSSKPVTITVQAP

Row | Binder | Kd
1 | B1 | 1.8 µM
2 | B2 | 11 µM
3 | B3 | 14 µM
4 | B4 | 1.2 µM
5 | B5 | 13 µM
6 | B6 | 7 µM
7 | B7 | 0.83 µM
8 | B8 | 19 µM
9 | B9 | 12 µM
10 | B10 | 0.85 µM
11 | B11 | 10 µM
12 | B12 | 1.1 µM

Biological target: T2, cynomolgus monkey FcγRIIa2 extracellular domain with C-terminal His-tag (cynomolgus monkey)
T2 construct: Expressed in FreeStyle 293 cells and purified; also called cyno FcγRIIa2; cynoFcgRIIa2; not shown: C-terminal His-tag
T2 chain: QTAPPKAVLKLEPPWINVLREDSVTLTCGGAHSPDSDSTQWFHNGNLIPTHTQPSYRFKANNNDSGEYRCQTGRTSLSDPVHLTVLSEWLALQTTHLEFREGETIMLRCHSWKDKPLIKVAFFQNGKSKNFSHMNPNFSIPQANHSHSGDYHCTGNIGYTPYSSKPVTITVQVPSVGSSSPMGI
Assay: SPR (Biacore); KD of SG1 divided by KD of the variant for this FcgR;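 further: relative to parent M103205H795-SG1 carrying the SG1 human heavy chain constant region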

Row | Binder | KD fold (SG1 = 1)
13 | B1 | 1.5 fold
14 | B2 | 2.8 fold
15 | B3 | 2.2 fold
16 | B4 | 2.3 fold
17 | B5 | 2.4 fold
18 | B6 | 3.6 fold
19 | B7 | 3.4 fold
20 | B8 | 1.9 fold
21 | B9 | 2.5 fold
22 | B10 | 3.2 fold
23 | B11 | 2.8 fold
24 | B12 | 2.5 fold

Biological target: T3, human FcγRIIaR extracellular domain with C-terminal His-tag (human, UniProt P12318 34-217)
T3 construct: Expressed in FreeStyle 293 cells and purified; also called human FcγRIIa (type R); FcgRIIaR; not shown: C-terminal His-tag
T3 chain: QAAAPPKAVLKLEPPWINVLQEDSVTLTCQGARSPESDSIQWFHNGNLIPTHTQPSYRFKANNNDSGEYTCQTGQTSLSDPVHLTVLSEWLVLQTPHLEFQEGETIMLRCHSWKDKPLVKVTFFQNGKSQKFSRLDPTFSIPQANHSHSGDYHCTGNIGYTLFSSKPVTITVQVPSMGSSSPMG
Assay: as above

Row | Binder | KD fold (SG1 = 1)
25 | B1 | 0.4 fold
26 | B2 | 0.6 fold
27 | B3 | 0.4 fold
28 | B4 | 0.5 fold
29 | B5 | 0.5 fold
30 | B6 | 0.8 fold
31 | B7 | 0.7 fold
32 | B8 | 0.4 fold
33 | B9 | 0.5 fold
34 | B10 | 0.8 fold
35 | B11 | 0.6 fold
36 | B12 | 0.5 fold

Biological target: T4, cynomolgus monkey FcγRIIa3 extracellular domain with C-terminal His-tag (cynomolgus monkey)
T4 construct: Expressed in FreeStyle 293 cells and purified; also called cyno FcγRIIa3; cynoFcgRIIa3; not shown: C-terminal His-tag
T4 chain: T2 chain with K127I, N130K, H133P, Q142R
Assay: as above

Row | Binder | KD fold (SG1 = 1)
37 | B1 | 1.5 fold
38 | B2 | 2.1 fold
39 | B3 | 1.8 fold
40 | B4 | 2.2 fold
41 | B5 | 2 fold
42 | B6 | 2.8 fold
43 | B7 | 2.5 fold
44 | B8 | 1.4 fold
45 | B9 | 2.2 fold
46 | B10 | 2.7 fold
47 | B11 | 2.1 fold
48 | B12 | 2 fold

biological target: T1, human FcγRIIb extracellular domain with …; assay: as above

Row | Binder | KD fold (SG1 = 1)
49 | B1 | 2.6 fold
50 | B2 | 4.2 fold
51 | B3 | 3.3 fold
52 | B4 | 3.8 fold
53 | B5 | 3.5 fold
54 | B6 | 6.6 fold
55 | B7 | 5.5 fold
56 | B8 | 2.4 fold
57 | B9 | 3.8 fold
58 | B10 | 5.4 fold
59 | B11 | 4.6 fold
60 | B12 | 4.2 fold

biological target: T5, human FcγRIIIaV extracellular domain with C-terminal His-tag (human, UniProt P08637 17-208); assay: as above
T5 construct: Expressed in FreeStyle 293 cells and purified; also called FcgRIIIaV; not shown: C-terminal His-tag
T5 sequence (P08637 17-208 F176V): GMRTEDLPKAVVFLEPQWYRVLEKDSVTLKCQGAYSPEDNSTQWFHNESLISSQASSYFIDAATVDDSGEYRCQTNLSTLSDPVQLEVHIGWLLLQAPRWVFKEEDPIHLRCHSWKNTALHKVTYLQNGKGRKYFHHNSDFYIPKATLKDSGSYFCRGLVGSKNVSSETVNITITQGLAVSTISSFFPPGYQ

Row | Binder | KD fold (SG1 = 1)
61 | B1 | 0.12 fold
62 | B2 | 0.13 fold
63 | B3 | 0.11 fold
64 | B4 | 0.12 fold
65 | B5 | 0.18 fold
66 | B6 | 0.13 fold
67 | B7 | 0.11 fold
68 | B8 | 0.14 fold
69 | B9 | 0.14 fold
70 | B10 | 0.12 fold
71 | B11 | 0.12 fold
72 | B12 | 0.11 fold

Biological target: T6, cynomolgus monkey FcγRIIb extracellular domain with C-terminal His-tag (cynomolgus monkey)
T6 construct: Expressed in FreeStyle 293 cells and purified; also called cyno FcγRIIb; cynoFcγRIIb; not shown: C-terminal His-tag
T6 chain: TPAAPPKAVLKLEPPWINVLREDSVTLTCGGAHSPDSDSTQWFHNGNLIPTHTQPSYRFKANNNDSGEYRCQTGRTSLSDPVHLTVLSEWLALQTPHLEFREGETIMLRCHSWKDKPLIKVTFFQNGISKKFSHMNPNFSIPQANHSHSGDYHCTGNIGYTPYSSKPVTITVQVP
Assay: as above

Row | Binder | KD fold (SG1 = 1)
73 | B1 | 1.5 fold
74 | B2 | 2.2 fold
75 | B3 | 1.8 fold
76 | B4 | 1.9 fold
77 | B5 | 1.9 fold
78 | B6 | 3 fold
79 | B7 | 2.5 fold
80 | B8 | 1.4 fold
81 | B9 | 1.8 fold
82 | B10 | 2.8 fold
83 | B11 | 2.3 fold
84 | B12 | 1.9 fold

Biological target: T7, cynomolgus monkey FcγRIIa1 extracellular domain with C-terminal His-tag (cynomolgus monkey)
T7 construct: Expressed in FreeStyle 293 cells and purified; also called cyno FcγRIIa1; cynoFcgRIIa1; not shown: C-terminal His-tag
T7 chain: T2 chain with T95P, A121T, K127I, S128A, N130K, N135D, Q142R
Assay: as above

Row | Binder | KD fold (SG1 = 1)
85 | B1 | 1.2 fold
86 | B2 | 1.7 fold
87 | B3 | 1.4 fold
88 | B4 | 1.5 fold
89 | B5 | 1.6 fold
90 | B6 | 2.5 fold
91 | B7 | 2.3 fold
92 | B8 | 1.2 fold
93 | B9 | 1.7 fold
94 | B10 | 2.1 fold
95 | B11 | 1.9 fold
96 | B12 | 1.5 fold

biological target: T8, human FcγRIIaH extracellular domain with C-terminal His-tag (human, UniProt P12318 34-217); assay: as above
T8 construct: Expressed in FreeStyle 293 cells and purified; also called human FcγRIIa (type H); FcgRIIaH; not shown: C-terminal His-tag
T8 sequence: T3 chain with R134H

Row | Binder | KD fold (SG1 = 1)
97 | B1 | 0.4 fold
98 | B2 | 0.7 fold
99 | B3 | 0.5 fold
100 | B4 | 0.5 fold
101 | B5 | 0.5 fold
102 | B6 | 1 fold
103 | B7 | 0.8 fold
104 | B8 | 0.4 fold
105 | B9 | 0.6 fold
106 | B10 | 0.9 fold
107 | B11 | 0.7 fold
108 | B12 | 0.6 fold
